Columns and labels:
[1] = molecular target: FcεRIα (human) (UniProt P12319); assay: SPR; insect derived
[2] = molecular target: FcεRIα (human) (UniProt P12319); assay: SPR; mammalian derived

Sequence of IgE-Fc3-4 (P01854 209-426): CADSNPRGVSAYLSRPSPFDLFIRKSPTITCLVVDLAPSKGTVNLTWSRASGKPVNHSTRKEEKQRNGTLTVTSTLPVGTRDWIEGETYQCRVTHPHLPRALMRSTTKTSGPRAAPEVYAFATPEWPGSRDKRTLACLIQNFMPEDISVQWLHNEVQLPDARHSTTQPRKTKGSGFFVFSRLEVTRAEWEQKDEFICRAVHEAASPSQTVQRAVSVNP
Sequence of FcεRIα (human) (P12319 26-201): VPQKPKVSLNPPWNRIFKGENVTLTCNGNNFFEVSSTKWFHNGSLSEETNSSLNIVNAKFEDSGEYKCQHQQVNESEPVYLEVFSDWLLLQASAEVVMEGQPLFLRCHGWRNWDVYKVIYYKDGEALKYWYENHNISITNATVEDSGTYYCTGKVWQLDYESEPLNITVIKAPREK

Kd [1]: 660 pM
Kd [2]: 933 pM
Substance: IgE-Fc3-4 (from UniProt P01854 209-426)
